Assay results reported in the Human Domainome abundance scans (Beltran et al. 2025).
± gives the uncertainty stated by the source.

B1: E3 ubiquitin-protein ligase Midline-1, residues 172 to 214; numbered along this chain, O15344 (parent)
chain: GLMCLEHEDEKVNMYCVTDDQLICALCKLVGRHRDHQVAALSE

Variants of: B1
Test: abundance fitness (aPCA) (normalised: wild type 0, dead -1); higher = more abundant; growth selection in yeast, the domain comes from the species named
Conditions: Homo sapiens

Variant	abundance fitness
GLMCLEHEDEKVNMYCVTDDQLICALCKLVGRHHDHQVAALSE	0.25 ± 0.095
GLMCLEHEDEKVNMYCVTDDQLICALCKLVGRHYDHQVAALSE	-0.544 ± 0.28
GLMCLEHEDEKVNMYCVTDDQLICALCKLVGRHQDHQVAALSE	0.088 ± 0.099
GLMCLEHEDEKVNMYCVTDDQLICALCKLVGRHGDHQVAALSE	0.048 ± 0.048
GLMCLEHEDEKVNMYCVTDDQLICALCKLVGRHWDHQVAALSE	-0.542 ± 0.087
GLMCLEHEDEKVNMYCVTDDQLICALCKLVGRHLDHQVAALSE	-0.376 ± 0.084
GLMCLEHEDEKVNMYCVTDDQLICALCKLVGRHVDHQVAALSE	-0.069 ± 0.059
GLMCLEHEDEKVNMYCVTDDQLICALCKLVGRHSDHQVAALSE	-0.066 ± 0.066
GLMCLEHEDEKVNMYCVTDDQLICALCKLVGRHDDHQVAALSE	-0.169 ± 0.087
GLMCLEHEDEKVNMYCVTDDQLICALCKLVGRHCDHQVAALSE	0.033 ± 0.068
GLMCLEHEDEKVNMYCVTDDQLICALCKLVGRHPDHQVAALSE	-0.24 ± 0.085
GLMCLEHEDEKVNMYCVTDDQLICALCKLVGRHKDHQVAALSE	0.376 ± 0.1
GLMCLEHEDEKVNMYCVTDDQLICALCKLVGRHEDHQVAALSE	0.063 ± 0.064
GLMCLEHEDEKVNMYCVTDDQLICALCKLVGRHIDHQVAALSE	0 ± 0.092
GLMCLEHEDEKVNMYCVTDDQLICALCKLVGRHADHQVAALSE	0.164 ± 0.062
GLMCLEHEDEKVNMYCVTDDQLICALCKLVGWHRDHQVAALSE	-0.323 ± 0.075
GLMCLEHEDEKVNMYCVTDDQLICALCKLVGCHRDHQVAALSE	-0.021 ± 0.08
GLMCLEHEDEKVNMYCVTDDQLICALCKLVGNHRDHQVAALSE	0.287 ± 0.23
GLMCLEHEDEKVNMYCVTDDQLICALCKLVGKHRDHQVAALSE	0.116 ± 0.059
GLMCLEHEDEKVNMYCVTDDQLICALCKLVGHHRDHQVAALSE	-0.152 ± 0.14
GLMCLEHEDEKVNMYCVTDDQLICALCKLVGMHRDHQVAALSE	-0.219 ± 0.07
GLMCLEHEDEKVNMYCVTDDQLICALCKLVGQHRDHQVAALSE	0.007 ± 0.07
GLMCLEHEDEKVNMYCVTDDQLICALCKLVGPHRDHQVAALSE	-0.022 ± 0.073
GLMCLEHEDEKVNMYCVTDDQLICALCKLVGEHRDHQVAALSE	0.149 ± 0.064

Variant	abundance fitness
GLMCLEHEDEKVNMYCVTDDQLICALCKLVGAHRDHQVAALSE	0.033 ± 0.06
GLMCLEHEDEKVNMYCVTDDQLICALCKLVGIHRDHQVAALSE	-0.18 ± 0.21
GLMCLEHEDEKVNMYCVTDDQLICALCKLVGDHRDHQVAALSE	-0.072 ± 0.08
GLMCLEHEDEKVNMYCVTDDQLICALCKLVGSHRDHQVAALSE	0.073 ± 0.061
GLMCLEHEDEKVNMYCVTDDQLICALCKLVGLHRDHQVAALSE	-0.058 ± 0.067
GLMCLEHEDEKVNMYCVTDDQLICALCKLVGVHRDHQVAALSE	-0.172 ± 0.065
GLMCLEHEDEKVNMYCVTDDQLICALCKLVGGHRDHQVAALSE	0.061 ± 0.048
GLMCLEHEDEKVNMYCVTDDQLICALCKLVGFHRDHQVAALSE	-0.593 ± 0.36
GLMCLEHEDEKVNMYCVTDDQLICALCKLVGTHRDHQVAALSE	0.09 ± 0.063
GLMCLEHEDEKVNMYCVTDDQLICALCKLPGRHRDHQVAALSE	0.022 ± 0.071
GLMCLEHEDEKVNMYCVTDDQLICALCKLCGRHRDHQVAALSE	-0.115 ± 0.15
GLMCLEHEDEKVNMYCVTDDQLICALCKLMGRHRDHQVAALSE	-0.039 ± 0.07
GLMCLEHEDEKVNMYCVTDDQLICALCKLAGRHRDHQVAALSE	0.15 ± 0.058
GLMCLEHEDEKVNMYCVTDDQLICALCKLKGRHRDHQVAALSE	0.235 ± 0.083
GLMCLEHEDEKVNMYCVTDDQLICALCKLRGRHRDHQVAALSE	-0.055 ± 0.051
GLMCLEHEDEKVNMYCVTDDQLICALCKLSGRHRDHQVAALSE	0.114 ± 0.056
GLMCLEHEDEKVNMYCVTDDQLICALCKLHGRHRDHQVAALSE	0.21 ± 0.064
GLMCLEHEDEKVNMYCVTDDQLICALCKLWGRHRDHQVAALSE	-0.309 ± 0.077
GLMCLEHEDEKVNMYCVTDDQLICALCKLIGRHRDHQVAALSE	-0.131 ± 0.12
GLMCLEHEDEKVNMYCVTDDQLICALCKLFGRHRDHQVAALSE	-0.381 ± 0.27
GLMCLEHEDEKVNMYCVTDDQLICALCKLDGRHRDHQVAALSE	0.145 ± 0.058
GLMCLEHEDEKVNMYCVTDDQLICALCKLYGRHRDHQVAALSE	-0.049 ± 0.1
GLMCLEHEDEKVNMYCVTDDQLICALCKLEGRHRDHQVAALSE	0.138 ± 0.064
GLMCLEHEDEKVNMYCVTDDQLICALCKLNGRHRDHQVAALSE	0.147 ± 0.09

Variant	abundance fitness
GLMCLEHEDEKVNMYCVTDDQLICALCKLGGRHRDHQVAALSE	0.134 ± 0.05
GLMCLEHEDEKVNMYCVTDDQLICALCKLLGRHRDHQVAALSE	-0.028 ± 0.056
GLMCLEHEDEKVNMYCVTDDQLICALCKLVGRQRDHQVAALSE	-0.73 ± 0.19
GLMCLEHEDEKVNMYCVTDDQLICALCKLVGRNRDHQVAALSE	-0.42 ± 0.14
GLMCLEHEDEKVNMYCVTDDQLICALCKLVGRDRDHQVAALSE	-0.647 ± 0.1
GLMCLEHEDEKVNMYCVTDDQLICALCKLVGRARDHQVAALSE	-0.591 ± 0.076
GLMCLEHEDEKVNMYCVTDDQLICALCKLVGRKRDHQVAALSE	-0.423 ± 0.14
GLMCLEHEDEKVNMYCVTDDQLICALCKLVGRSRDHQVAALSE	-0.718 ± 0.12
GLMCLEHEDEKVNMYCVTDDQLICALCKLVGRVRDHQVAALSE	-0.882 ± 0.086
GLMCLEHEDEKVNMYCVTDDQLICALCKLVGRFRDHQVAALSE	-0.528 ± 0.29
GLMCLEHEDEKVNMYCVTDDQLICALCKLVGRRRDHQVAALSE	-0.732 ± 0.073
GLMCLEHEDEKVNMYCVTDDQLICALCKLVGRYRDHQVAALSE	-0.603 ± 0.22
GLMCLEHEDEKVNMYCVTDDQLICALCKLVGRWRDHQVAALSE	-1.01 ± 0.13
GLMCLEHEDEKVNMYCVTDDQLICALCKLVGRTRDHQVAALSE	-0.538 ± 0.12
GLMCLEHEDEKVNMYCVTDDQLICALCKLVGRLRDHQVAALSE	-0.829 ± 0.1
GLMCLEHEDEKVNMYCVTDDQLICALCKLVGRERDHQVAALSE	-0.576 ± 0.087
GLMCLEHEDEKVNMYCVTDDQLICALCKLVGRGRDHQVAALSE	-0.478 ± 0.056
GLMCLEHEDEKVNMYCVTDDQLICALCKLVGRHRDKQVAALSE	0.034 ± 0.47
GLMCLEHEDEKVNMYCVTDDQLICALCKLVGRHRDSQVAALSE	-0.533 ± 0.08
GLMCLEHEDEKVNMYCVTDDQLICALCKLVGRHRDLQVAALSE	-0.753 ± 0.1
GLMCLEHEDEKVNMYCVTDDQLICALCKLVGRHRDNQVAALSE	-0.376 ± 0.27
GLMCLEHEDEKVNMYCVTDDQLICALCKLVGRHRDMQVAALSE	-1.04 ± 0.19
GLMCLEHEDEKVNMYCVTDDQLICALCKLVGRHRDAQVAALSE	-0.445 ± 0.065
GLMCLEHEDEKVNMYCVTDDQLICALCKLVGRHRDEQVAALSE	-0.546 ± 0.07

Variant	abundance fitness
GLMCLEHEDEKVNMYCVTDDQLICALCKLVGRHRDIQVAALSE	-0.488 ± 0.19
GLMCLEHEDEKVNMYCVTDDQLICALCKLVGRHRDRQVAALSE	-0.669 ± 0.079
GLMCLEHEDEKVNMYCVTDDQLICALCKLVGRHRDGQVAALSE	-0.516 ± 0.062
GLMCLEHEDEKVNMYCVTDDQLICALCKLVGRHRDDQVAALSE	-0.798 ± 0.21
GLMCLEHEDEKVNMYCVTDDQLICALCKLVGRHRDQQVAALSE	-0.284 ± 0.15
GLMCLEHEDEKVNMYCVTDDQLICALCKLVGRHRDPQVAALSE	-0.637 ± 0.15
GLMCLEHEDEKVNMYCVTDDQLICALCKLVGRHRDCQVAALSE	-0.056 ± 0.077
GLMCLEHEDEKVNMYCVTDDQLICALCKLVTRHRDHQVAALSE	-0.333 ± 0.095
GLMCLEHEDEKVNMYCVTDDQLICALCKLVHRHRDHQVAALSE	0.057 ± 0.17
GLMCLEHEDEKVNMYCVTDDQLICALCKLVIRHRDHQVAALSE	-0.887 ± 0.32
GLMCLEHEDEKVNMYCVTDDQLICALCKLVSRHRDHQVAALSE	-0.263 ± 0.075
GLMCLEHEDEKVNMYCVTDDQLICALCKLVWRHRDHQVAALSE	-0.803 ± 0.093
GLMCLEHEDEKVNMYCVTDDQLICALCKLVQRHRDHQVAALSE	-0.438 ± 0.13
GLMCLEHEDEKVNMYCVTDDQLICALCKLVLRHRDHQVAALSE	-0.47 ± 0.067
GLMCLEHEDEKVNMYCVTDDQLICALCKLVCRHRDHQVAALSE	-0.121 ± 0.084
GLMCLEHEDEKVNMYCVTDDQLICALCKLVYRHRDHQVAALSE	-0.19 ± 0.36
GLMCLEHEDEKVNMYCVTDDQLICALCKLVERHRDHQVAALSE	-0.154 ± 0.064
GLMCLEHEDEKVNMYCVTDDQLICALCKLVFRHRDHQVAALSE	-0.519 ± 0.14
GLMCLEHEDEKVNMYCVTDDQLICALCKLVARHRDHQVAALSE	-0.231 ± 0.058
GLMCLEHEDEKVNMYCVTDDQLICALCKLVRRHRDHQVAALSE	-0.299 ± 0.057
GLMCLEHEDEKVNMYCVTDDQLICALCKLVKRHRDHQVAALSE	-0.065 ± 0.12
GLMCLEHEDEKVNMYCVTDDQLICALCKLVDRHRDHQVAALSE	0.111 ± 0.13
GLMCLEHEDEKVNMYCVTDDQLICALCKLVMRHRDHQVAALSE	-0.514 ± 0.087
GLMCLEHEDEKVNMYCVTDDQLICALCKLVGRHRYHQVAALSE	-0.33 ± 0.13

Variant	abundance fitness
GLMCLEHEDEKVNMYCVTDDQLICALCKLVGRHRFHQVAALSE	-0.254 ± 0.17
GLMCLEHEDEKVNMYCVTDDQLICALCKLVGRHRPHQVAALSE	-0.299 ± 0.15
GLMCLEHEDEKVNMYCVTDDQLICALCKLVGRHRLHQVAALSE	-0.172 ± 0.062
GLMCLEHEDEKVNMYCVTDDQLICALCKLVGRHRVHQVAALSE	-0.28 ± 0.062
GLMCLEHEDEKVNMYCVTDDQLICALCKLVGRHRQHQVAALSE	0.034 ± 0.065
GLMCLEHEDEKVNMYCVTDDQLICALCKLVGRHRRHQVAALSE	-0.287 ± 0.061
GLMCLEHEDEKVNMYCVTDDQLICALCKLVGRHRSHQVAALSE	-0.189 ± 0.065
GLMCLEHEDEKVNMYCVTDDQLICALCKLVGRHRAHQVAALSE	-0.285 ± 0.073
GLMCLEHEDEKVNMYCVTDDQLICALCKLVGRHRIHQVAALSE	-0.496 ± 0.23
GLMCLEHEDEKVNMYCVTDDQLICALCKLVGRHRCHQVAALSE	-0.142 ± 0.12
GLMCLEHEDEKVNMYCVTDDQLICALCKLVGRHRKHQVAALSE	-0.105 ± 0.068
GLMCLEHEDEKVNMYCVTDDQLICALCKLVGRHRTHQVAALSE	-0.042 ± 0.17
GLMCLEHEDEKVNMYCVTDDQLICALCKLVGRHRHHQVAALSE	-0.177 ± 0.14
GLMCLEHEDEKVNMYCVTDDQLICALCKLVGRHREHQVAALSE	0.088 ± 0.056
GLMCLEHEDEKVNMYCVTDDQLICALCKLVGRHRNHQVAALSE	-0.114 ± 0.3
GLMCLEHEDEKVNMYCVTDDQLICALCKLVGRHRMHQVAALSE	-0.299 ± 0.079
GLMCLEHEDEKVNMYCVTDDQLICALCKQVGRHRDHQVAALSE	-0.016 ± 0.091
GLMCLEHEDEKVNMYCVTDDQLICALCKRVGRHRDHQVAALSE	0.227 ± 0.047
GLMCLEHEDEKVNMYCVTDDQLICALCKVVGRHRDHQVAALSE	0.008 ± 0.059
GLMCLEHEDEKVNMYCVTDDQLICALCKSVGRHRDHQVAALSE	0.279 ± 0.055
GLMCLEHEDEKVNMYCVTDDQLICALCKTVGRHRDHQVAALSE	0.175 ± 0.059
GLMCLEHEDEKVNMYCVTDDQLICALCKYVGRHRDHQVAALSE	-0.085 ± 0.21
